# Data taken from publication PMC10786891, “Massively parallel profiling of RNA-targeting CRISPR-Cas13d”.
# Biological target: T1, EsCas13d, nuclease-dead (Eubacterium siraeum, UniProt B0MS50, R295A;H300A;R849A;H854A)
# T1 sequence: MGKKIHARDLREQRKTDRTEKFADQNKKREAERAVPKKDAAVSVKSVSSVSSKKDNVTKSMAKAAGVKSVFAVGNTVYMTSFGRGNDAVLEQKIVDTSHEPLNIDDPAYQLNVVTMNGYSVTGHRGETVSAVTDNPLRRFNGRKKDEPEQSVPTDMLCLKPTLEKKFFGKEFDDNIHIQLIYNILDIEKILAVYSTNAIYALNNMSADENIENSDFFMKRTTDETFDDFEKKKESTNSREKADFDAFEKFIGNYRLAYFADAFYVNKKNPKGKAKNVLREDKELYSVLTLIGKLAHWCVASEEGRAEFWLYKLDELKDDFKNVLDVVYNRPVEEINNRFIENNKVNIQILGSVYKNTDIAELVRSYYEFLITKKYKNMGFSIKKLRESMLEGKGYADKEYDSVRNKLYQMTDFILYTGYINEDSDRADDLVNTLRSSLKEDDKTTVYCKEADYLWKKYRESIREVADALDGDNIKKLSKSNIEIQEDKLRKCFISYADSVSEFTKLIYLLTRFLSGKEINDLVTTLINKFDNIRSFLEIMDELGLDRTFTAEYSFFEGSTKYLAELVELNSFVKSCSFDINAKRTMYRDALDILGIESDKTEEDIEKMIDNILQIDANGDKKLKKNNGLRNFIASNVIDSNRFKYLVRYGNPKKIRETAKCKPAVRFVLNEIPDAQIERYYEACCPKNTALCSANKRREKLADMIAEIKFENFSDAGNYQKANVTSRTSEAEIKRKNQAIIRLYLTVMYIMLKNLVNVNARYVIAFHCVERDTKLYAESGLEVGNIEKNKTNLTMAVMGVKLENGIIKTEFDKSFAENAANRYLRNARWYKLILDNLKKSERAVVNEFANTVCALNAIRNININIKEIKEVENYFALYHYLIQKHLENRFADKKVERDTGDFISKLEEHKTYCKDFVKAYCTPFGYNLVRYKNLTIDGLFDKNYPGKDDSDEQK
# Test: crRNA (strand 1, pre-loaded); Mg2+; 40 mM Tris-HCl pH 7.5, 150 mM NaCl, 6 mM MgCl2, 1 mM DTT, 0.1% Tween-20, 0.2 mg/ml BSA; 25 C; 10 min per concentration, then washed
# Conditions: tags: His6-TwinStrep-SUMO cleaved; N-terminal SNAP kept (SNAP-Surface 488); label: 3' end held by stalled T7 RNA polymerase
row,Binder,Kd
1,target 2 MT 5'PFS GGG 3'PFS AUC (mixed) RNA 1: CACCCGUGCAAAAUUGCAGGGGUCUAAAACCUUCUCCAAAUUGUUUCAUCCU RNA 2: GGGAAUGGAUCCACAUCUACGAAUUCGGGAGGAUGAAACAAUUUGGAGAAGAUCAGAUCGGAAGAGCACACGU,8.5 ± 0.8 nM
2,target 2 MT 5'PFS AUA 3'PFS CAG (mixed) RNA 1: CACCCGUGCAAAAUUGCAGGGGUCUAAAACCUUCUCCAAAUUGUUUCAUCCU RNA 2: GGGAAUGGAUCCACAUCUACGAAUUCAUAAGGAUGAAACAAUUUGGAGAAGCAGAGAUCGGAAGAGCACACGU,8.4 ± 2.6 nM
3,target 2 MT 5'PFS GCU 3'PFS CGC (mixed) RNA 1: CACCCGUGCAAAAUUGCAGGGGUCUAAAACCUUCUCCAAAUUGUUUCAUCCU RNA 2: GGGAAUGGAUCCACAUCUACGAAUUCGCUAGGAUGAAACAAUUUGGAGAAGCGCAGAUCGGAAGAGCACACGU,12.1 ± 1.3 nM
4,target 2 MT 5'PFS GCC 3'PFS ACA (mixed) RNA 1: CACCCGUGCAAAAUUGCAGGGGUCUAAAACCUUCUCCAAAUUGUUUCAUCCU RNA 2: GGGAAUGGAUCCACAUCUACGAAUUCGCCAGGAUGAAACAAUUUGGAGAAGACAAGAUCGGAAGAGCACACGU,10.8 ± 1.1 nM
5,target 2 MT 5'PFS AAG 3'PFS CGG (mixed) RNA 1: CACCCGUGCAAAAUUGCAGGGGUCUAAAACCUUCUCCAAAUUGUUUCAUCCU RNA 2: GGGAAUGGAUCCACAUCUACGAAUUCAAGAGGAUGAAACAAUUUGGAGAAGCGGAGAUCGGAAGAGCACACGU,3.4 ± 0.5 nM
6,target 2 MT 5'PFS CGA 3'PFS AAA (mixed) RNA 1: CACCCGUGCAAAAUUGCAGGGGUCUAAAACCUUCUCCAAAUUGUUUCAUCCU RNA 2: GGGAAUGGAUCCACAUCUACGAAUUCCGAAGGAUGAAACAAUUUGGAGAAGAAAAGAUCGGAAGAGCACACGU,13 ± 5 nM
7,target 2 MT 5'PFS AUG 3'PFS UGU (mixed) RNA 1: CACCCGUGCAAAAUUGCAGGGGUCUAAAACCUUCUCCAAAUUGUUUCAUCCU RNA 2: GGGAAUGGAUCCACAUCUACGAAUUCAUGAGGAUGAAACAAUUUGGAGAAGUGUAGAUCGGAAGAGCACACGU,21 ± 2.6 nM
8,target 2 MT 5'PFS UAU 3'PFS ACU (mixed) RNA 1: CACCCGUGCAAAAUUGCAGGGGUCUAAAACCUUCUCCAAAUUGUUUCAUCCU RNA 2: GGGAAUGGAUCCACAUCUACGAAUUCUAUAGGAUGAAACAAUUUGGAGAAGACUAGAUCGGAAGAGCACACGU,76 ± 25 nM
9,target 2 MT 5'PFS AAG 3'PFS CGA (mixed) RNA 1: CACCCGUGCAAAAUUGCAGGGGUCUAAAACCUUCUCCAAAUUGUUUCAUCCU RNA 2: GGGAAUGGAUCCACAUCUACGAAUUCAAGAGGAUGAAACAAUUUGGAGAAGCGAAGAUCGGAAGAGCACACGU,4.5 ± 0.5 nM
10,target 2 MT 5'PFS GUC 3'PFS AGU (mixed) RNA 1: CACCCGUGCAAAAUUGCAGGGGUCUAAAACCUUCUCCAAAUUGUUUCAUCCU RNA 2: GGGAAUGGAUCCACAUCUACGAAUUCGUCAGGAUGAAACAAUUUGGAGAAGAGUAGAUCGGAAGAGCACACGU,16.5 ± 2.6 nM
11,target 2 MT 5'PFS AAG 3'PFS AGG (mixed) RNA 1: CACCCGUGCAAAAUUGCAGGGGUCUAAAACCUUCUCCAAAUUGUUUCAUCCU RNA 2: GGGAAUGGAUCCACAUCUACGAAUUCAAGAGGAUGAAACAAUUUGGAGAAGAGGAGAUCGGAAGAGCACACGU,5.7 ± 1 nM
12,target 2 MT 5'PFS UAU 3'PFS ACG (mixed) RNA 1: CACCCGUGCAAAAUUGCAGGGGUCUAAAACCUUCUCCAAAUUGUUUCAUCCU RNA 2: GGGAAUGGAUCCACAUCUACGAAUUCUAUAGGAUGAAACAAUUUGGAGAAGACGAGAUCGGAAGAGCACACGU,58 ± 6 nM
13,target 2 MT 5'PFS AUA 3'PFS CAC (mixed) RNA 1: CACCCGUGCAAAAUUGCAGGGGUCUAAAACCUUCUCCAAAUUGUUUCAUCCU RNA 2: GGGAAUGGAUCCACAUCUACGAAUUCAUAAGGAUGAAACAAUUUGGAGAAGCACAGAUCGGAAGAGCACACGU,5.4 ± 1.1 nM
14,target 2 MT 5'PFS GCC 3'PFS ACG (mixed) RNA 1: CACCCGUGCAAAAUUGCAGGGGUCUAAAACCUUCUCCAAAUUGUUUCAUCCU RNA 2: GGGAAUGGAUCCACAUCUACGAAUUCGCCAGGAUGAAACAAUUUGGAGAAGACGAGAUCGGAAGAGCACACGU,12.2 ± 1.4 nM
15,target 2 MT 5'PFS AAG 3'PFS CGC (mixed) RNA 1: CACCCGUGCAAAAUUGCAGGGGUCUAAAACCUUCUCCAAAUUGUUUCAUCCU RNA 2: GGGAAUGGAUCCACAUCUACGAAUUCAAGAGGAUGAAACAAUUUGGAGAAGCGCAGAUCGGAAGAGCACACGU,3.34 ± 0.31 nM
16,target 2 MT 5'PFS CGA 3'PFS AAC (mixed) RNA 1: CACCCGUGCAAAAUUGCAGGGGUCUAAAACCUUCUCCAAAUUGUUUCAUCCU RNA 2: GGGAAUGGAUCCACAUCUACGAAUUCCGAAGGAUGAAACAAUUUGGAGAAGAACAGAUCGGAAGAGCACACGU,7.5 ± 1.1 nM
17,target 2 MT 5'PFS UGG 3'PFS UAC (mixed) RNA 1: CACCCGUGCAAAAUUGCAGGGGUCUAAAACCUUCUCCAAAUUGUUUCAUCCU RNA 2: GGGAAUGGAUCCACAUCUACGAAUUCUGGAGGAUGAAACAAUUUGGAGAAGUACAGAUCGGAAGAGCACACGU,8.6 ± 0.9 nM
18,target 2 MT 5'PFS GCC 3'PFS ACU (mixed) RNA 1: CACCCGUGCAAAAUUGCAGGGGUCUAAAACCUUCUCCAAAUUGUUUCAUCCU RNA 2: GGGAAUGGAUCCACAUCUACGAAUUCGCCAGGAUGAAACAAUUUGGAGAAGACUAGAUCGGAAGAGCACACGU,12.9 ± 1.9 nM
19,target 2 MT 5'PFS GGG 3'PFS AUG (mixed) RNA 1: CACCCGUGCAAAAUUGCAGGGGUCUAAAACCUUCUCCAAAUUGUUUCAUCCU RNA 2: GGGAAUGGAUCCACAUCUACGAAUUCGGGAGGAUGAAACAAUUUGGAGAAGAUGAGAUCGGAAGAGCACACGU,9.2 ± 0.6 nM
20,target 2 MT 5'PFS GGG 3'PFS AUA (mixed) RNA 1: CACCCGUGCAAAAUUGCAGGGGUCUAAAACCUUCUCCAAAUUGUUUCAUCCU RNA 2: GGGAAUGGAUCCACAUCUACGAAUUCGGGAGGAUGAAACAAUUUGGAGAAGAUAAGAUCGGAAGAGCACACGU,7.1 ± 0.5 nM
21,target 2 MT 5'PFS ACC 3'PFS ACA (mixed) RNA 1: CACCCGUGCAAAAUUGCAGGGGUCUAAAACCUUCUCCAAAUUGUUUCAUCCU RNA 2: GGGAAUGGAUCCACAUCUACGAAUUCACCAGGAUGAAACAAUUUGGAGAAGACAAGAUCGGAAGAGCACACGU,8 ± 4 nM
22,target 2 MT 5'PFS AUA 3'PFS CAA (mixed) RNA 1: CACCCGUGCAAAAUUGCAGGGGUCUAAAACCUUCUCCAAAUUGUUUCAUCCU RNA 2: GGGAAUGGAUCCACAUCUACGAAUUCAUAAGGAUGAAACAAUUUGGAGAAGCAAAGAUCGGAAGAGCACACGU,4.6 ± 1.3 nM
23,target 2 MT 5'PFS AUA 3'PFS CAU (mixed) RNA 1: CACCCGUGCAAAAUUGCAGGGGUCUAAAACCUUCUCCAAAUUGUUUCAUCCU RNA 2: GGGAAUGGAUCCACAUCUACGAAUUCAUAAGGAUGAAACAAUUUGGAGAAGCAUAGAUCGGAAGAGCACACGU,4.6 ± 0.8 nM
24,target 2 MT 5'PFS UAA 3'PFS AGC (mixed) RNA 1: CACCCGUGCAAAAUUGCAGGGGUCUAAAACCUUCUCCAAAUUGUUUCAUCCU RNA 2: GGGAAUGGAUCCACAUCUACGAAUUCUAAAGGAUGAAACAAUUUGGAGAAGAGCAGAUCGGAAGAGCACACGU,3.2 ± 0.4 nM
25,target 2 MT 5'PFS AAG 3'PFS AGC (mixed) RNA 1: CACCCGUGCAAAAUUGCAGGGGUCUAAAACCUUCUCCAAAUUGUUUCAUCCU RNA 2: GGGAAUGGAUCCACAUCUACGAAUUCAAGAGGAUGAAACAAUUUGGAGAAGAGCAGAUCGGAAGAGCACACGU,3.7 ± 0.4 nM
26,target 2 MT 5'PFS AAG 3'PFS AGA (mixed) RNA 1: CACCCGUGCAAAAUUGCAGGGGUCUAAAACCUUCUCCAAAUUGUUUCAUCCU RNA 2: GGGAAUGGAUCCACAUCUACGAAUUCAAGAGGAUGAAACAAUUUGGAGAAGAGAAGAUCGGAAGAGCACACGU,2.5 ± 0.28 nM
27,"target 1 insU 3' of 15,insA 3' of 8 (mixed) RNA 1: CACCCGUGCAAAAAUGCAGGGGUCUAAAACUGAGCGGAUAACCUCUCUAUGG RNA 2: GGGAAUGGAUCCACAUCUACGAAUUCGUACCAUAGAGUAGGUUAUACCGCUCACCGAGAUCGGAAGAGCACACGU",16.8 ± 2 nM
28,"target 1 C6G,G15C (mixed) RNA 1: CACCCGUGCAAAAAUGCAGGGGUCUAAAACUGAGCGGAUAACCUCUCUAUGG RNA 2: GGGAAUGGAUCCACAUCUACGAAUUCGUACCAUAGACAGGUUAUCGGCUCACCGAGAUCGGAAGAGCACACGU",47 ± 10 nM
